Source: patent US20250381289A1 (Genmab, published 2025)
Substitutions are numbered along the chain they refer to. One block for each binder: values may come before it.

How the values were obtained:
[1] = target: T1, EGFR on EGFR and cMET co-expressed tumor cell lines (UniProt P00533 25-1210, limits assumed); assay: flow cytometry, SNU-5 cells (co-express EGFR and cMET; both arms contribute)
T1 construct: whole, on cells

[2] = target: T2, cMET on EGFR and cMET co-expressed tumor cell lines (UniProt P08581 25-1390, limits assumed); assay: as above
T2 construct: whole, on cells

[3] = target: T1, EGFR on EGFR and cMET co-expressed …; assay: flow cytometry, EBC-1 cells (co-express EGFR and cMET; both arms contribute)
[4] = target: T2, cMET on EGFR and cMET co-expressed …; assay: as above
[5] = target: T1, EGFR on EGFR and cMET co-expressed …; assay: flow cytometry on CAL-27 cells (co-express EGFR and cMET), PE anti-human Fc; signal of the whole bispecific, not resolved by arm
[6] = target: T2, cMET on EGFR and cMET co-expressed …; assay: as above
[7] = target: T1, EGFR on EGFR and cMET co-expressed …; assay: flow cytometry on SNU-5 cells (co-express EGFR and cMET), PE anti-human Fc; signal of the whole bispecific, not resolved by arm
Method: (§1) EBC-1, ACHN and CAL-27 were cultured with DMEM medium (Gibco, Cat #C11995500BT) containing 10% FBS. […] Each antibody was incubated with different cell lines (1×10⁵ cells per well) for 30 mins in 0.2 mL FACS buffer (1×PBS with 0.1% BSA) at 4° C. After wash, cells were incubated with 100 μL PE-conjugated anti human Fc (Abcam, Ab98596, 1:500 dilution) for 30 mins at 4° C. After wash with PBS, cells were resuspended in FACS buffer and analyzed by flow cytometer (Beckman, CytoFLEX).

[8] = target: T2, cMET on EGFR and cMET co-expressed …; assay: as above
Method: as §1

[9] = target: T1, EGFR on EGFR and cMET co-expressed …; assay: flow cytometry on EBC-1 cells (co-express EGFR and cMET), PE anti-human Fc; signal of the whole bispecific, not resolved by arm
Method: as §1

[10] = target: T2, cMET on EGFR and cMET co-expressed …; assay: as above
Method: as §1

[11] = target: T2, cMET on EGFR and cMET co-expressed …; assay: flow cytometry, MKN-45 cells
[12] = target: T2, cMET on EGFR and cMET co-expressed …; assay: flow cytometry, EBC-1 cells (co-express EGFR and cMET; both arms contribute); remark: listed apart in the source
Method: EBC-1 was cultured with DMEM medium (Gibco, Cat #C11995500BT) containing 10% FBS. […] Each antibody was incubated with different cell lines (1×10⁵ cells/well) for 30 min in 0.2 mL FACS buffer (1×PBS with 0.1% BSA) at 4° C. After wash, cells were incubated with 100 μL PE-conjugated anti human Fc (Abcam, Ab98596, 1:500 dilution) for 30 min at 4° C. After wash with PBS, cells were resuspended in FACS buffer and analyzed by flow cytometer (Beckman, CytoFLEX).

T2 sequence (P08581 25-1390 limits assumed): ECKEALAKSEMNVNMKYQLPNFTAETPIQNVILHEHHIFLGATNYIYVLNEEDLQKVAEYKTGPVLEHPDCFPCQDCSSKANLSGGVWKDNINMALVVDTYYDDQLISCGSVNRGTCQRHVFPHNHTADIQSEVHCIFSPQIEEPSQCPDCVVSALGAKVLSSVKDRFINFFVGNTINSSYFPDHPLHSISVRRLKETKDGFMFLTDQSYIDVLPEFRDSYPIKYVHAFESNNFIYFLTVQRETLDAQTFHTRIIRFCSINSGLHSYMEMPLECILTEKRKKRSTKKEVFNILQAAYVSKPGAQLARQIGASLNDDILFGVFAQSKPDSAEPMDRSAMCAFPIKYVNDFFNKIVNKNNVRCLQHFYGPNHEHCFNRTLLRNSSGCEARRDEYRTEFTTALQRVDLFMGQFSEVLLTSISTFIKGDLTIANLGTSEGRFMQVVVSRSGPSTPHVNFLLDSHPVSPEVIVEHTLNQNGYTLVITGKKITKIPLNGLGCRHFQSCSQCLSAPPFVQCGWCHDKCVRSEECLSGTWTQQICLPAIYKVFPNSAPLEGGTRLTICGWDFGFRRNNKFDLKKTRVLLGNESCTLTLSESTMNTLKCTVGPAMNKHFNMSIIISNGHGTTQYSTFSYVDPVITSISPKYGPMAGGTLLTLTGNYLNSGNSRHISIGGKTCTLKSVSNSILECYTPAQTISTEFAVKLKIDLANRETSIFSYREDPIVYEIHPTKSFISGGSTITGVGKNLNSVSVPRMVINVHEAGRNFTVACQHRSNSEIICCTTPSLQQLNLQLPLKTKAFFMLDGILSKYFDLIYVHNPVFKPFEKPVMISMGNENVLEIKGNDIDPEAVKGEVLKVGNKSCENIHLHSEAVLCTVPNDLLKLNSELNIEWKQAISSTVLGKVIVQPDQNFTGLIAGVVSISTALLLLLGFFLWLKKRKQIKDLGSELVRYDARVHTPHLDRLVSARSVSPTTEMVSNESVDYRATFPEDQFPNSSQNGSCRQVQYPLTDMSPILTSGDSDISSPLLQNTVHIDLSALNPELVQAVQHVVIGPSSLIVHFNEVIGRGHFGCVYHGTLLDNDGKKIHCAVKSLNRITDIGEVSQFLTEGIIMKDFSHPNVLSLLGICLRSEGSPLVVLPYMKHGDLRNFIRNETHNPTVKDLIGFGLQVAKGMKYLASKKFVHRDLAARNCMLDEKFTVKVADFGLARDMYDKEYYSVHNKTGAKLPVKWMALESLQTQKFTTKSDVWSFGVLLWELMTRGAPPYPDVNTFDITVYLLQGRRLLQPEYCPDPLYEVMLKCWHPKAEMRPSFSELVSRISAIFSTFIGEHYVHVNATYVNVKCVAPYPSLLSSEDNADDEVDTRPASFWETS

B3: ABF-46 (antibody, V domains shown)
VH: EVKLVESGGGLVQPGGSLRLSCATSGFTFTDYYMSWVRQPPGKALEWLGFIRNKANGYTTEYSASVKGRFTISRDNSQSILYLQMDTLRAEDSATYYCARDNWFAYWGQGTLVTVSA
VL: DILMTQSPSSLTVSAGEKVTMSCKSSQSLLASGNQNNYLAWHQQKPGRSPKMLIIWASTRVSGVPDRFIGSGSGTDFTLTINSVQAEDLAVYYCQQSYSAPLTFGAGTKLELK
binding result [11]: binds

B5: Nova-5097 (antibody, V domains shown)
VH: QVQLVQSGAEVKKPGSSVKVSCKASGGTFSSYAISWVRQAPGQGLEWMGGIDPFGTANYAQKFQGRVTITADESTSTAYMELSSLRSEDTAVYYCARVYQDVWGQGTLVTVSS
VL: DIVMTQSPDSLAVSLGERATINCRSSQSILYGINNNFLGWYQQKPGQPPKLLIYWASTRESGVPDRFSGSGSGTDFTLTISSLQAEDVAVYYCQQYAFGWTFGQGTKVEIK
notes: Parent cMET mAb
binding result [11]: binds

B6: Nova-5098 (antibody, V domains shown)
VH: B5 VH
VL: DIVMTQSPDSLAVSLGERATINCRSSQSILYGINNNFLGWYQQKPGQPPKLLIYWASTRESGVPDRFSGSGSGTDFTLTISSLQAEDVAVYYCLQYSDEPWTFGQGTKVEIK
notes: Parent cMET mAb
binding result [11]: binds

B7: Nova-5185 (antibody, V domains shown)
VH: B5 VH with F54I, G55M, T56G, A57T, N58E
VL: B6 VL with L94Q, S97A, D98Y, W101N
notes: Parent cMET mAb
binding result [11]: binds

Next, values leading:

EC50 (read off the curve) [1]: ~2 nM
EC50 (read off the curve) [2]: ~2 nM
EC50 (read off the curve) [3]: ~0.9 nM
EC50 (read off the curve) [4]: ~0.9 nM
B1: AZD9592 (bispecific antibody, human IgG1, kappa, lambda)
anti EGFR heavy chain: QVQLVQSGAEVKKPGSSVKVSCKASGGTFSDNDFSWVRQAPGQGLEWMGAIVAVFRTETYAQKFQDRVKITADISTRTTYMELSSLRSEDTAVYYCARRLMSAISGPGAPLLMWGQGTLVTVSSASTKGPSVCPLAPSSKSTSGGTAALGCLVKDYFPEPVTVSWNSGALTSGVHTFPAVLQSSGLYSLSSVVTVPSSSLGTQTYICNVNHKPSNTKVDKRVEPKSVDKTHTCPPCPAPEFEGGPSVFLFPPKPKDTLMISRTPEVTCVVVDVSHEDPEVKFNWYVDGVEVHNAKTKPREEQYNSTYRVVSVLTVLHQDWLNGKEYKCKVSNKALPASIEKTISKAKGQPREPQVYTLPPCREEMTKNQVSLWCLVKGFYPSDIAVEWESNGQPENNYKTTPPVLDSDGSFFLYSKLTVDKSRWQQGNVFSCSVMHEALHNHYTQKSLSLSPGK
anti EGFR light chain: QSALTQPRSVSGSPGQSVTISCTGTSSDVGGYNYVSWYQQHPGKAPKLMIYDVSKRPSGVPDRFSGSKSGNTASLTISGLQAEDEADYYCSSYTSSDTLEIFGGGTKLTVLGQPKAAPSVTLFPPCSEELQANKATLVCLISDFYPGAVTVAWKADSSPVKAGVETTTPSKQSNNKYAASSYLSLTPEQWKSHRSYSCQVTHEGSTVEKTVAPTEVS
anti cMET heavy chain: QVQLVQSGAEVKKPGASVKVSCKASGYTFTDYYIHWVRQATGQGLEWMGWMNPNSGNTGYAQKFQGRVTMTRDTSISTAYMELSSLRSEDTAVYYCARGQGYTHSWGQGTMVTVSSASTKGPSVFPLAPSSKSTSGGTAALGCLVKDYFPEPVTVSWNSGALTSGVHTFPAVLQSSGLYSLSSVVTVPSSSLGTQTYICNVNHKPSNTKVDKRVEPKSCDKTHTCPPCPAPEFEGGPSVFLFPPKPKDTLMISRTPEVTCVVVDVSHEDPEVKFNWYVDGVEVHNAKTKPREEQYNSTYRVVSVLTVLHQDWLNGKEYKCKVSNKALPASIEKTISKAKGQPREPQVCTLPPSREEMTKNQVSLSCAVKGFYPSDIAVEWESNGQPENNYKTTPPVLDSDGSFFLVSKLTVDKSRWQQGNVFSCSVMHEALHNHYTQKSLSLSPGK
anti cMET light chain: DIQMTQSPSTLSASVGDRVTITCRASEGIYHWLAWYQQKPGKAPKLLIYKASSLASGVPSRFSGSGSGTEFTLTISSLQPDDFATYYCQQYSNYPPTFGGGTKLEIKRTVAAPSVFIFPPSDEQLKSGTASVVCLLNNFYPREAKVQWKVDNALQSGNSQESVTEQDSKDSTYSLSSTLTLSKADYEKHKVYACEVTHQGLSSPVTKSFNRGEC

EC50 (read off the curve) [5]: ~9 nM
EC50 (read off the curve) [6]: ~9 nM
EC50 (read off the curve) [7]: ~4 nM
EC50 (read off the curve) [8]: ~4 nM
EC50 (read off the curve) [9]: ~2 nM
EC50 (read off the curve) [10]: ~2 nM
B2: AZD9592-Ab (bispecific antibody, human IgG1, kappa, lambda)
anti-EGFR heavy chain: B1 anti EGFR heavy chain
anti-EGFR light chain: B1 anti EGFR light chain
anti-cMET heavy chain: B1 anti cMET heavy chain
anti-cMET light chain: B1 anti cMET light chain
notes: also called RAA22/B09-TM

EC50 (read off the curve) [12]: ~2 nM
B4: Bsab 12 (bispecific antibody, human IgG1, kappa, L234A L235A)
chain 1: not shown
chain 2: DIQMTQSPSSLSASVGDRVTITCKSSQSLLYTSSQKNYLAWYQQKPGKAPKLLIYWASTRESGVPSRFSGSGSGTDFTLTISSLQPEDFATYYCQQYYAYPWTFGQGTKVEIKRTVAAPSVFIFPPSDEQLKSGTASVVCLLNNFYPREAKVQWKVDNALQSGNSQESVTEQDSKDSTYSLSSTLTLSKADYEKHKVYACEVTHQGLSSPVTKSFNRGECGGGGSGGGGSGGGGSGGGGSGGGGSGGGGSGGGGSGGGGSEVQLVESGGGLVQPGGSLRLSCAASGYTFTSYWLHWVRQAPGKGLEWVGMIDPSNSDTRFNPNFKDRFTISADTSKNTAYLQMNSLRAEDTAVYYCATYRSYVTPLDYWGQGTLVTVSSASTKGPSVFPLAPSSKSTSGGTAALGCLVKDYFPEPVTVSWNSGALTSGVHTFPAVLQSSGLYSLSSVVTVPSSSLGTQTYICNVNHKPSNTKVDKKVEPKSCDKTHTCPPCPAPEAAGGPSVFLFPPKPKDTLMISRTPEVTCVVVDVSHEDPEVKFNWYVDGVEVHNAKTKPREEQYNSTYRVVSVLTVLHQDWLNGKEYKCKVSNKALPAPIEKTISKAKGQPREPQVYTLPPCREEMTKNQVSLSCAVKGFYPSDIAVEWESNGQPENNYKTTPPVLDSDGSFFLVSKLTVDKSRWQQGNVFSCSVMHEALHNHYTQKSLSLSPGK
notes: 1+1 scFab knob-in-hole format; also called Basb 12
